Where no end group is shown, it is not given here.
B1: mouse monoclonal antibody against HBx (anti-HBx 2A7) (antibody, V domains shown)
VH: QVTLKESGPGILQPSQTLSLTCSFSGFSLSTSGMGVVWIRQPSGKGLEWLAHIWWDDDKYYNTALKSGLTISKDTSKNQVFLKIASVDTADTATYYCARMPYYDYDGGVAYWGQGTLVTVSA
VL: DIVMTQSPASLVVSLGQRATISCRASKSVSTSGYSYMYWYQQKPGQPPKLLIYLASNLESGVPARFSGSGSGTDFTLNIHPVEEEDAATYYCQHSRELPLTFGAGTKLELK
notes: 2A7 VH; 2A7 CH, mapped to mouse IGHG1 (immunoglobulin heavy constant gamma 1); 2A7 VL1; 2A7 CK, κ-type light chain constant region; IgG1 subclass, κ light chain (VL1/CK and VH/CH confirmed by LC-MS/MS); also called anti-HBx mAb 2A7; 2A7 mAb; source: SP2/0 hybridoma cell line, purified; also recovered from lysed Huh-7 or HepG2 cells after delivery with TR16-Tat
B2: recombinant 2A7 antibody (antibody, V domains shown)
VH: B1 VH
VL: B1 VL
notes: as the VH of m1 (2A7 VH); mouse IgG2a heavy chain constant fragment; as the VL of m1 (2A7 VL1); mouse κ light chain constant fragment; source: Expi293F cells, co-transfected, purified from culture supernatant (Protein A)
B3: Igκ-VHVL(2A7)-Fc (scFv, V domains shown)
VH: B1 VH
VL: B1 VL
notes: as the VH of m1 (2A7 VH); linker, printed as (GlyGlyGlyGlySer)3; as the VL of m1 (2A7 VL1); also called Igκ-VHVL-Fc; 2A7-derived scFv; source: HEK293T, transfected; secreted into supernatant, or in cell lysate; not shown: Fc (human IgG1), C-terminal, kept

Biological target: T1, biotinylated BPS HBx peptide a.a. 89–104 (Hepatitis B virus genotype B, isolate …, UniProt P20975, strain, also: biotinylated)
T1 construct: HBx of hepatitis B virus genotype B isolate BPS, a.a; a.a; also called peptide harboring a.a; source: synthetic peptide (GL Biochem)
T1 chain: LPKVLHKRTLGLSAMS
Test: ELISA; biotinylated 16-mer HBx peptides captured on streptavidin-coated plates at 500 ng/well in PBS; antibody added, 37 °C for 1 h; HRP anti-mouse pAb; OD450
Conditions: both partners purified
B1: binds. B2: binds.

Biological target: T1, biotinylated BPS HBx peptide a.a. 89–104
Test: ELISA; biotinylated 16-mer HBx peptides captured on streptavidin-coated plates; secreted Igκ-VHVL-Fc added; HRP anti-human Fc pAb; OD450
Conditions: one partner purified
B3: binds.

Each molecule was assayed against T2, bacterially expressed BPS-encoded HBx protein (Hepatitis B virus genotype B, isolate …, UniProt P20975, strain) (assay: ELISA; recombinant BPS HBx coated at 100 ng/well in bicarbonate/carbonate buffer pH 9.6; purified antibody added, 37 °C for 1 h; HRP anti-mouse pAb; OD450). Conditions: both partners purified.
T2 construct: HBx (X protein) of hepatitis B virus genotype B isolate BPS; also called recombinant HBx protein; BPS HBx (ELISA); source: bacterially expressed, purified under denaturing conditions
B1: binds.

The molecules below were run against T3, FLAG-tagged wild type BPS HBx (Hepatitis B virus genotype B, isolate …, UniProt P20975, strain) (assay: co-IP; HEK293T co-transfected with Igκ-VHVL-Fc and FLAG-tagged wild type or mutant BPS HBx; lysate; anti-FLAG as capture antibody; blots with anti-hFc and anti-FLAG). Conditions: partners not purified.
T3 construct: HBx (X protein) of hepatitis B virus genotype B isolate BPS, 154 a.a; also called FLAG-HBx (wild type); wild-type HBx; source: HEK293T, transfected, in lysate or in fixed cells; HepG2, transfected, in lysate; not shown: FLAG, N-terminal, kept
B3: binds.

What follows are molecules tested against mouse monoclonal antibody against HBx (anti-HBx 2A7) (assay: Western blot with densitometry). Conditions: HEK293T lysates; 2A7 signal adjusted against anti-FLAG signal, normalized against BPS HBx; parent: 100.
Molecule “FLAG-tagged wild type BPS HBx V92A; L93A; H94A” has a percent of parent of 0%. FLAG-tagged wild type BPS HBx K91A was tested, and the percent of parent was 36%. For “FLAG-tagged wild type BPS HBx 101-103 (3 Ala)”, the percent of parent was 296%. “FLAG-tagged wild type BPS HBx V83A; N84A” was tested, and the percent of parent was 349%. For FLAG-tagged wild type BPS HBx T97A, the percent of parent was 99%. Work on “FLAG-tagged wild type BPS HBx 77-79 (3 Ala)” yielded a percent of parent of 97%. In the case of “FLAG-tagged wild type BPS HBx H86A; R87A; N88A”, the percent of parent is reported as 334%. FLAG-tagged wild type BPS HBx L89A showed a percent of parent of 151%. “FLAG-tagged wild type BPS HBx L89A; P90A; K91A” gave a percent of parent of 36%. “FLAG-tagged wild type BPS HBx 98-100 (3 Ala)” showed a percent of parent of 140%. FLAG-tagged wild type BPS HBx V92A showed a percent of parent of 2%. Molecule FLAG-tagged wild type BPS HBx K95A has a percent of parent of 0%. For “FLAG-tagged wild type BPS HBx K95A; R96A; T97A”, the percent of parent was 0%. FLAG-tagged wild type BPS HBx L93A gave a percent of parent of 25%. FLAG-tagged wild type BPS HBx L98A was tested, and the percent of parent was 90%. Molecule FLAG-tagged wild type BPS HBx R96A has a percent of parent of 81%. Work on “FLAG-tagged wild type BPS HBx 80-82 (3 Ala)” yielded a percent of parent of 450%. With FLAG-tagged wild type BPS HBx P90A the percent of parent was 7%. “FLAG-tagged wild type BPS HBx 104-106 (3 Ala)” showed a percent of parent of 187%. In the case of FLAG-tagged wild type BPS HBx H94A, the percent of parent is reported as 0%.

What follows are molecules tested against T4, FLAG-tagged WT (genotype C isolate) HBx (Hepatitis B virus genotype C, isolate …, UniProt P0C686, strain) (assay: Western blot; lysates of HEK293T cells transfected with FLAG-tagged HBx variants, 48 hours, resolved and blotted; probed with 2A7; anti-FLAG as control; densitometry normalised to anti-FLAG and to BPS HBx). Conditions: one partner purified.
T4 construct: 'WT' is here the name of an isolate, not 'wild type'; also called WT HBx; source: HEK293T, transfected, in lysate or in fixed cells; not shown: FLAG, N-terminal, kept
B1: binds.
